# In patent US20130338339A1:
# Experiments:
# [1] = target: polyclonal human IgG (Gammanorm, Octapharma) (human); test: breakthrough on a column of immobilised ligand, 1 mg/ml IgG, pH 7.4, residence time 2.4 min, ligand density 9.6 mg/ml
# [2] = target: polyclonal human IgG (Gammanorm, Octapharma) (human); test: gradient elution pH 6 to pH 3 from a column of immobilised ligand; polyclonal IgG (Gammanorm) shows the biggest difference
# [3] = target: polyclonal human IgG (Gammanorm, Octapharma) (human); test: gradient elution pH 6 to pH 3 (0.1 M citrate) from a column of immobilised ligand, pH at peak apex
substance,measurement,setting,value
"Mutant Z(H18S)4: ligand tetramer containing four copies of protein Z, each containing the H18S substitution (designed binder)",Qb10% (dynamic binding capacity at 10% breakthrough),[1],36.4 mg/ml resin
same,Qb80% (dynamic binding capacity at 80% breakthrough),[1],65 mg/ml resin
same,increase in elution pH compared to Z4,[2],> 1 >pH unit
same,"elution pH, hIgG (first peak)",[3],5.11 pH
same,"elution pH, hIgG (second peak)",[3],4.61 pH
